From the supplement of paper PMC10724198
± gives the standard deviation of the averaged measurements.

The sequences below were run on Saccharomyces cerevisiae (assay: protein stability index of tFT-peptide fusion (C-terminal peptide) (PSI (0-1 scale)); higher = more stable (slower turnover)). Settings: genetic background: wild type; temperature: 30 C.
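Also: PSI is a weighted mean of sequencing reads over stability bins, variants kept only with over 10 reads, mCherry proximal and sfGFP distal, peptide attached via GGGS linker.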

Row | Sequence | protein stability index
1 | CRLFFVFVFFWW | 0.253 ± 0.095
2 | CSFCSGMILLLS | 0.418 ± 0.0062
3 | CTAWWVKGVAVK | 0.525 ± 0.049
4 | CVILVSFFCYSA | 0.2201 ± 0.00089
5 | CVLLVFLHLCLA | 0.381 ± 0.0019
6 | CVLVLLLRLAFL | 0.4885 ± 0.0022
7 | CWILLFGCVWVG | 0.263 ± 0.0084
8 | CWSSVGLSVCGC | 0.601 ± 0.16
9 | CWYRAVSIQYVL | 0.306 ± 0.015
10 | DFWMLLFGIIFA | 0.449 ± 0.019
11 | DHSWGGLLICTC | 0.473 ± 0.039
12 | DILCGRCMIVGA | 0.495 ± 0.018
13 | DIRLWISCTLWF | 0.324 ± 0.013
14 | DLFVFFVFHFFL | 0.457 ± 0.026
15 | DLRFAWLLSCFS | 0.432 ± 0.015
16 | DSSRRKRLICMN | 0.25 ± 0.093
17 | DVWEHLHKQHNM | 0.499 ± 0.085
18 | EGVVLLVDCVAT | 0.41 ± 0.025
19 | ERRWKRKVIGLC | 0.274 ± 0.047
20 | ERRWVLVAWRFK | 0.494 ± 0.02

Row | Sequence | protein stability index
21 | ESSRNILLWRTI | 0.443 ± 0.073
22 | ETYCLPRVASGI | 0.733 ± 0.0075
23 | EWAILSLGVMCV | 0.225 ± 0.014
24 | EYGLLLTLLAYY | 0.362 ± 0.044
25 | FCDFLFVFPLFS | 0.515 ± 0.22
26 | FCLGFRFFVFFL | 0.218 ± 0.032
27 | FCRLTFCFFAFL | 0.47 ± 0.035
28 | FCTSSRLLYCSA | 0.302 ± 0.01
29 | FCTVYFVCVWEM | 0.334 ± 0.055
30 | FECLLFVNLLVI | 0.288 ± 0.02
31 | FFCCRLPCLFVL | 0.252 ± 0.022
32 | FFCLFCLSCWVL | 0.436 ± 0.054
33 | FFCLVEVFVGVF | 0.2798 ± 0.0012
34 | FFCVLGLSFFCL | 0.542 ± 0.17
35 | FFLFLFFFLRGS | 0.467 ± 0.023
36 | FFRVCNALLLVC | 0.0759 ± 0.035
37 | FFSFFLSFRLWF | 0.449 ± 0.11
38 | FFTLSTVKLLRV | 0.508 ± 0.044
39 | FFVFVVFFCFGL | 0.383 ± 0.047
40 | FGLLLVLASALG | 0.3828 ± 0.0021

Row | Sequence | protein stability index
41 | FGLMCFIFYVLV | 0.307 ± 0.057
42 | FHFLFLFSLVSV | 0.416 ± 0.017
43 | FILLHLLGTIRS | 0.438 ± 0.016
44 | FIMHRIFMALVI | 0.341 ± 0.14
45 | FLFCMIFIFRCF | 0.276 ± 0.1
46 | FLFLFIFYFFCC | 0.389 ± 0.083
47 | FLFLSPLALHVS | 0.304 ± 0.01
48 | FLIVLLVIFFGF | 0.324 ± 0.006
49 | FLLASSRRICCS | 0.391 ± 0.0082
50 | FLLCGVFFFFFV | 0.4286 ± 0.0014
51 | FLLGWFLFFVCS | 0.406 ± 0.043
52 | FLLYSILLAFLL | 0.436 ± 0.011
53 | FLMLFVVLWLFL | 0.366 ± 0.076
54 | FLPFRVFNFSLV | 0.38 ± 0.063
55 | FLSFARSSCLWF | 0.748 ± 0.016
56 | FMSAGVSWIFFV | 0.343 ± 0.047
57 | FNLWCRQLASIE | 0.327 ± 0.094
58 | FPLFCRIHLLCS | 0.107 ± 0.0096
59 | FPPHFLPLVFLS | 0.103 ± 0.0049
60 | FPRPLPVPLAVS | 0.25711 ± 0.00013

The sequences below were run on Saccharomyces cerevisiae in the same assay as above. Settings: genetic background: cdc34-1; temperature: 37 C.
Description: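 MPS profiling in S. cerevisiae of the tFT-X12 degron library: putative degron peptides plus stable controls, 12 aa, fused to the C-terminus of a sfGFP-mCherry timer. Cells are FACS-sorted into 8 mCherry/sfGFP bins and deep-sequenced. PSI runs from 0 (unstable) to 1 (stable). Backgrounds are wild type, das1Δ and doa10Δ at 30 °C, and wild type, das1Δ, cdc34-1 and cdc53-1 at 37 °C; 2-3 technical replicates each.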

Row | Sequence | protein stability index
61 | CRLFFVFVFFWW | 0.22 ± 0.04
62 | CSFCSGMILLLS | 0.522 ± 0.055
63 | CTAWWVKGVAVK | 0.622 ± 0.033
64 | CVILVSFFCYSA | 0.142 ± 0.021
65 | CVLLVFLHLCLA | 0.292 ± 0.0051
66 | CVLVLLLRLAFL | 0.5506 ± 0.0053
67 | CWILLFGCVWVG | 0.1785 ± 0.0003
68 | CWSSVGLSVCGC | 0.676 ± 0.026
69 | CWYRAVSIQYVL | 0.435 ± 0.027
70 | DFWMLLFGIIFA | 0.488 ± 0.041
71 | DHSWGGLLICTC | 0.476 ± 0.011
72 | DILCGRCMIVGA | 0.592 ± 0.045
73 | DIRLWISCTLWF | 0.244 ± 0.019
74 | DLFVFFVFHFFL | 0.425 ± 0.032
75 | DLRFAWLLSCFS | 0.44 ± 0.017
76 | DSSRRKRLICMN | 0.611 ± 0.016
77 | DVWEHLHKQHNM | 0.704 ± 0.015
78 | EGVVLLVDCVAT | 0.4623 ± 0.0015
79 | ERRWKRKVIGLC | 0.632 ± 0.034
80 | ERRWVLVAWRFK | 0.555 ± 0.026

Row | Sequence | protein stability index
81 | ESSRNILLWRTI | 0.69 ± 0.041
82 | ETYCLPRVASGI | 0.695 ± 0.021
83 | EWAILSLGVMCV | 0.0657 ± 0.03
84 | EYGLLLTLLAYY | 0.4526 ± 0.0018
85 | FCDFLFVFPLFS | 0.562 ± 0.016
86 | FCLGFRFFVFFL | 0.26 ± 0.011
87 | FCRLTFCFFAFL | 0.573 ± 0.051
88 | FCTSSRLLYCSA | 0.177 ± 0.0029
89 | FCTVYFVCVWEM | 0.1957 ± 0.0014
90 | FECLLFVNLLVI | 0.274 ± 0.0029
91 | FFCCRLPCLFVL | 0.369 ± 0.016
92 | FFCLFCLSCWVL | 0.403 ± 0.023
93 | FFCLVEVFVGVF | 0.0707 ± 0.051
94 | FFCVLGLSFFCL | 0.609 ± 0.065
95 | FFLFLFFFLRGS | 0.4853 ± 0.0033
96 | FFRVCNALLLVC | 0.0637 ± 0.058
97 | FFSFFLSFRLWF | 0.365 ± 0.061
98 | FFTLSTVKLLRV | 0.497 ± 0.025
99 | FFVFVVFFCFGL | 0.321 ± 0.008
100 | FGLLLVLASALG | 0.356 ± 0.034

Row | Sequence | protein stability index
101 | FGLMCFIFYVLV | 0.2 ± 0.018
102 | FHFLFLFSLVSV | 0.294 ± 0.074
103 | FILLHLLGTIRS | 0.433 ± 0.02
104 | FIMHRIFMALVI | 0.386 ± 0.055
105 | FLFCMIFIFRCF | 0.216 ± 0.011
106 | FLFLFIFYFFCC | 0.269 ± 0.046
107 | FLFLSPLALHVS | 0.444 ± 0.03
108 | FLIVLLVIFFGF | 0.275 ± 0.0072
109 | FLLASSRRICCS | 0.458 ± 0.0088
110 | FLLCGVFFFFFV | 0.323 ± 0.0043
111 | FLLGWFLFFVCS | 0.401 ± 0.015
112 | FLLYSILLAFLL | 0.524 ± 0.034
113 | FLMLFVVLWLFL | 0.427 ± 0.026
114 | FLPFRVFNFSLV | 0.659 ± 0.031
115 | FLSFARSSCLWF | 0.678 ± 0.028
116 | FMSAGVSWIFFV | 0.579 ± 0.021
117 | FNLWCRQLASIE | 0.181 ± 0.034
118 | FPLFCRIHLLCS | 0.138 ± 0.0083
119 | FPPHFLPLVFLS | 0.436 ± 0.035
120 | FPRPLPVPLAVS | 0.153 ± 0.023
